Experimental data as given in the supplement of paper PMC12636428.

System: Saccharomyces cerevisiae
Experiment: transcriptional activation domain activity (GFP:mCherry ratio, weighted mean of sorted bins, harmonized to initial dataset scale) (arbitrary fluorescence ratio units); higher = stronger transcriptional activation
Details: beta-estradiol 1 µM; induction time 4 h
Method in brief: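 In diploid yeast carrying a GFP reporter, barcoded protein tiles fused to an estradiol-inducible synthetic transcription factor were integrated at the URA3 locus. Cultures diluted 1:5 into SC with 1 uM beta-estradiol were kept at 30 °C for 4 hours, then sorted by GFP:mCherry ratio into 8 bins before barcode sequencing. Tiles with under 50 reads were excluded. The activation activity reported here is the read-weighted mean of bin median fluorescence, averaged across barcodes and linearly rescaled to the initial dataset.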

Sequence | transcriptional activation domain activity
CHLLLVCLFYDFLTIEYYLYGSLLLLLLHDCFLLKICEFIVRPTCLPGLFHAK | 60500
RIVRLSFAYTSFIVLPWQQLSEFRGQAYTVGACLEALRLMPNLLRCAFAAYEL | 53600
MWTSLGCYSCLLCLLLHVVYVPSLLVPSQHPFLSSCLGAVGLTFTWMICCFFP | 56500
GATSTDHQHHHHRIQFHSHKPNRNNIVNNSGISAANTTADLTNNDLNDLISRE | 31400
QHMAQSAQSVMGLEDHNAYGDPDSASRKRSKVSRACDECRRKKVRPRRPANGV | 25800
EAPVEAPIEVPVEAPVEAPVEAEKPAEEIETPAEAVVEKPAEETEKPAEAVVE | 31900
KSSKEKDTASVKRGSVESDDTPAAAAAATKGKQLSKDGDADDDSDESDEEKEQ | 33700
SDYGLHLRHVLLLSPTIFPIIFAALMGRCFRSIGLYRAERGISLIRLEQLIGC | 55900
FDQDIPQDSSLNTSYISNLPYFGVTPSENFDETWFFDQAIGLGWLDSAQFTLG | 142000
KTHPQASAEADGEEDAEPEGQAKSRQPSRRRQSRGRGRRGGPQESDTESIARS | 19300
SNKRPSSGPARGGRNNGGRGNNQNANNNRGGRRGRGGAKESGAPNGQKKAGAP | 9410
MKVDSYTDYLTGIFIHCGLYDTNHDPNYPALYYRCVLLDSTWLVGLLTCFLWL | 65100
ILRLWQIFWVAAKTDHMSYPRFEAPGCGDFCRDWKVLVAIILIRTKLTMGTRC | 52200
ATKTKAATTKKAAVPKKAAAKPAPKKAVAAAKPKANAGRPRKTVAAAAGPAPA | 42000
SITILVNIFLLHGSVKFIQKCLQYIGYIAEEVRSSLPLHKCLYWPLLIMLRLL | 45200
MLLTVYMFIIVCTCLAQLKIQSLSFLIYYHYINLVLLLLIAGLLYGLSFVRFS | 48500
EQYKLVCEALHERATFLEIAPYLAHQLPIMLPLYKWWQLPYYWAGCKVYDLLA | 43400
RKRKASASPERDEEGKSGPKGRGRTARRGSKAGRGKSGGTQRGGRKGASEREV | 38500
AAPAAPADDGFQSVPGRNRGQREGGGNYRSRGGYRGEGRGRGGYRGEGRGRGR | 37000
MLVALCTYMIFNYYFFNFLLLFIFLYFTSYIVLSSSYSLVFISLIINSDFLFL | 57500
MRRLKFGFFPPHFAGFFLSVVLHIIIVYNLWVPFVLLFLLISFLSFLSCIQSF | 54200

Sequence | transcriptional activation domain activity
NSWLCGFQGIALMYLVLLLLCFGVLLIANLHFLSVYRSTWLQIHMTPMIVLSF | 57400
VVAYGSGKEEGMKVEGEGEGGKVLRDIIDKLGHALTSTRFAGLPLPHVLAVVK | 69700
HQPGPWESLDMPWAIGWGLGAFPGIPWDVFFFPLWPSTLFPGSPPPSLLEAPS | 55500
AWLIHCILLFPWSSKLFPSWCGHMTSCYEFYVLGAISVCNCAVVFVYWLILLV | 56600
FSIVACVVGCQDSEWGLQFSHERCFTLHTLGHLSQFEKIVVVLIACKLLLFSK | 65200
LSRKASELRHATRNWALHSKHEEWNVSFRELARKYLIRPFLLMINPVCFLMSF | 74700
PAEATVAITNVLYVVQKYYPGSHNLITLLLAIRCVMFTVFRFVAAPLCVTHAL | 46700
NAVIKDFACVNECLARCSHVITTRRIIYILQLRVHCVAYSLPILNLPLFFFSR | 55300
HGEERGWIYLVQYRGIAWLLRRLACCRFEILAIFHLSNLNHPVNVLADSYDRE | 19700
MSTWLLRVFFSTCLYIIIWFFFHSFPFLSFFLPCLCCMFFFLACCLVSLSRVL | 35200
ASFLVLRDIRLLDCFSVLASCGYVSLFPLIYTCDEWLIKVVYTLLWYIIYYFS | 84300
AAKSKGRTSRASRTRGEKSDSKEEKKRTSSLKEKRSSSEEKKSRSSKSAGKEK | 38300
KKLTRGKGKKSKGKKARSNAKRSKGKGKVTKEDTSDEEDEEEGEEERGEEEEE | 12500
MPPQSRQSRMPEAPAEPRSARGRVTKRRSGNACVRCRRQKIKCSGSHPCEACS | 24800
YSIQVFMVPQLAICKVDSIGNVIGGQGGCYNLIPVFDWVRRCVVSIFLVFMVA | 71500
MCKKGKGVAIGPLSLSWFFNLSLVIFSLLSSLQSLWFLPWPLNFVLMVPVHFV | 79900
DIDEQRLQLYGVQIQIFLFVVMLYIFGCNLVIASKMVVLQPRNMVSWCCLIPS | 46800
NANADSNIAGNPKNNDATIDNELTQILNEYNMNFNDNLGTSTSGKNKSACPSS | 54200
EKGGRDKDKDGRPANAKPKSKPHGKTPKPQQQRDGKKSATLKENAAPAAPAAA | 24800
KALVDAIITSHNIIIVHNQLIWFPNIVFLMSLIPLHIAAMNLWMALDMLFCFC | 52900
DDHRSRRYRDRGRDRDQDEDAEDSHRDRRRRRRSPDEGASRRHQRESHADGDG | 35700

Sequence | transcriptional activation domain activity
SAFGGGGGASAFGSGTSAFGSGANTGSAFGGTASTPSTASAFGGGSAFGGAGS | 32700
QAAFRQRRANYIATLEETGWVVSILLYLHRSSLSFSAVTSLESVVLQLQDSCR | 53400
MIPPIHSPSFLQSYICFMLILPLPLMSIIVFHPLYFFWLFLSFLLLDYYLLLL | 23300
MILLVSFFFLLLIFFFSIREFRSECIVNDFWSFVYLSAYIVLDVCRIFFFLFW | 25600
VRTARQQLMEAAMKTFQLAVGPSEYLPNLALGYQYMACLRWLTHFNIFFHIPL | 71400
RIRKFTVLGATIVEPFMECVLNGVLGAFGFWVFFGVPRLWFFGWHLCYWLLVD | 86000
VSAARKRWIAMVWLFTWWIPTYLLVCCGMKRQDIRMAWREKVAICIVIFWISA | 56200
QLALFRWCAKMCGDVLSARDLVILGCRILLRCLRSYAWDFLFGHLLFALRLVR | 72000
PLALDFPPLGHMVELVDVVMWLCGRAGELPMWPQKIFNFNWIELSMKYPHHFI | 50500
MPNEESKPVDQAAQEAEASKAVEELKLDEGSASKGKSSKKDKIKNAISSISSS | 26800
MHCIVVSCSLFLWFVFCKYLIYFKNAFTDISVFLGFLFGWFLSLLFHLSIVFG | 48500
TFLQVCGSSSIGFSSINLSLRTMAIYGQSLYVVIALVILILGHWCLLLHGLML | 63800
YMEIVCEKQLLVVSKVNRGWLYMAITQADLVYWATLSLASHYRDSKSVALTYF | 62500
GEGEGEVEAEVPTAAANEPVLEVQPKEPEPEAPAQPQQQPAAVKTTRPAPVSH | 28800
LELPDNLDNADFSKLLEFDAKNDEALFNSNELLSHTMDPVNNIDLTHDHSREV | 93000
WKPDIYTCVMRMLLDRLHSALGSLHARSIIRKIRILVALAGNVAYRGYPLQMT | 48900
YFLGIFMYFLYGESVIYYFKHVLLVDRILLPLATHHRFISFMLYLIGFVFFVG | 65800
IIFYLIISIIIIIILLLFYYYLLFIIMFFIQDVGCWLLLWCFVGLFELLLQLL | 28700
MGVLSFRFLFWSFFFLSVMFLFLFFVFLLGYWFWFWFWLLVWLLVGFCCLVFF | 38500
ESPSPDQEEEVEDRENDKPKANTAKKAKPAEGKKTGGRKKAALGGAAKKKAEK | 43300
MRSTGLESIKGLGTGYVGICGFIYLCISTYMHFLIPNIPNWIFFLLFLYPFLS | 59300

Sequence | transcriptional activation domain activity
EKEGKRRSLQKASTSKASSKTLHFMECKVVPEQPLLRIRWSSLTHGALMLYNG | 49300
GLFASCWQRFAQAYRPCIGLTRIFVLCLLEVVLWLKGLEILFWFFLWCWCTTT | 50200
MVLCNSKSLFFPLFLHYLYCVIFLLLWILFHIAFIFFTNFYYYLPSHTLCAFI | 61700
IHILASIPSEFWKLLILSFFEKFRSNIYHTLFYRFIYLNRGFILLLLNQLRLI | 48100
AAASAPAPQNDGFSEVQHSRGGRGRGGHPSGERGGYRGRGRGGPRGDFGGRGR | 49600
YDLLSVKDLHIQDRLLSARIVLSDISFLKRILMLLGVPDGLSSRLVSHLWCAV | 58400
AAGGSSSQAQITVNPGAKAEEEAEEDEGQLVQRMARRGIKSHVFVGSEIVQIP | 33900
MRYGHLYTWIIILKYSLVLHQVFSLYLCIIFLAIIVFLIFVYWLMLEIFLVLF | 80500
AKSNKRRRASAPSSNTFKGSKRSASNASSQSKASNSNRVIKRARRASSASTKK | 20900
GSNIQWLVTKWREMGCRKGPIELTKFLTGLLCVNPFSLTPEKGARLLIKLLSI | 62200
MPFSVSASNILLSPFHLIFWSIRNFSNILIFLFSPFFLVLYYASYVFTPIFIP | 96500
ELGSFRLLSFRVWCLLGTGSFWGLLYTAIAKMDGYTFGFLLQAHHVLKLLLVS | 54400
KWLGECLNAAIAVFLYIYFLLHVGLLHLSHFFFFFFDLFSPVYTLSLQMVLYL | 53800
NVRLQVDQCAFVLEHCADATPGLINYIQWYYCSSTKPIVFILMCFWLLFLFGF | 40400
SSSNQQTRTRDGPKKKKANRACLHCQKAHLTCDDSRPCQRCVRRGMANSCTEG | 29900
KKASSSAVGEGKKKSASKPRTSSAGGASVDGQPKKPKQSKKKAASGSKGGAGS | 28500
GKRAGAKGKKEASKKKKSQGSSRKGSGKGKKGNGGKGKNGGGKDKGKKSGKKG | 21800
LLKLKMATKTNDIALYEHFIDMSLRFLPFWNMIVSYYLCLLLLFNTTHIIFIL | 90500
GAGGGITSNGGGKPAAAAEGAKPASEAPKEASKPEGAKPASESPKPEGEKPAA | 27600
SAKSLRLTVDEVKMLHRPALWYLIVGLVDTVAAARLRYFSFILHRPPLRQTLS | 47800
